Test results from US5558865, “HIV immunotherapeutics” (Nissin Shokuhin Kabushiki Kaisha, dated 1996).

T1: IIIB loop peptide Peptide 2 (HIV-1 strain IIIB)
T1 peptide: RIQRGPGR

T2: V3 loop peptide of HIV-1 isolate MN (HIV-1 isolate MN)
T2 peptide: RIHIGPGRAFYTTKN

T3: IIIB loop peptide Peptide 3 (HIV-1 strain IIIB)
T3 peptide: IQRGPGRA

T4: IIIB loop peptide Peptide 4 (HIV-1 strain IIIB)
T4 peptide: QRGPGRAF

T5: peptide of amino acids 322-336 of HIV-1MN gp120 (HIV-1 strain MN)
T5 peptide: YTTKNIIGTIRQAHC

T6: peptide of amino acids 312-326 of HIV-1MN gp120 (HIV-1 strain MN)
T6 peptide: RIHIGPGRAFYTTKN

B1: monoclonal antibody P4/D10 (antibody, V domains shown)
VH: QIQLQQSGAELASPGASVTLSCKASGYTFTDHIMNWVKKRPGQGLEWIGRIFPVSGETNYNQKFMGKATFSVDRSSSTVSMVLNSLTSEDPAVYYCDLIYYDYEEDYYFDYWGQGTTLTV
VL: DIVLTQSPASLAVSLGQRATISCRASESVDDYGISFMHWYQQKLGQPPKLLIYRASNLESGIPARFSGSGSGTEFTLTINPVETDDVATYYCQQSNKDPLTFGAGTKLELKR
B2: monoclonal antibody F58/H3 (antibody, V domains shown)
VH: B1 VH
VL: B1 VL
B3: monoclonal antibody NM-01 (antibody, V domains shown)
VH: QIQLKESGPAVIKPSQSLSLTCIVSGFSITSSSYCWHWIRQPPGKGLEWMGRICYEGSIDYSPSIKSRSTISRDTSLNRFFIQLSSVTNEDTAMYYCSRENHGTTTSMDYWGQGTSVTVSS
VL: DIVLTQSPASLAVSLGQRATISCRASESVDSYGNSFMHWYQQKPGQSPKLLIYVASNLESGVPARFSGSGSRTDFTLTIDPVEADDAATYYCQQNNEDPLTFGAGTKLELKR

Columns and labels:
native HIV-1MN gp120 [1] = biological target: T7, native HIV-1MN gp120 (HIV-1 strain MN, UniProt P05877); experiment: Western blot
[2] = biological target: recombinant HIV-1MN gp120 (Agmed, Inc.) (HIV-1 strain MN, UniProt P05877); experiment: Western blot
[3] = biological target: T1, IIIB loop peptide Peptide 2; experiment: competition ELISA, 5 µg/ml antibody preincubated with 50 µg/ml peptide, on coated recombinant IIIB gp120
native HIV-1IIIB gp120 [4] = biological target: T8, native HIV-1IIIB gp120 (HIV-1 strain IIIB, UniProt P04578); experiment: Western blot, colorimetric
[5] = biological target: recombinant HIV-1IIIB gp120 (DuPont-NEN) (HIV-1 strain IIIB, UniProt P04578); experiment: Western blot, colorimetric
[6] = biological target: T2, V3 loop peptide of HIV-1 isolate MN; experiment: peptide ELISA
[7] = biological target: V3 loop peptide of HIV-1 isolate CDC4 (HIV-1 isolate CDC4); experiment: peptide ELISA
[8] = biological target: V3 loop peptide of HIV-1 isolate ELI (HIV-1 isolate ELI); experiment: peptide ELISA
[9] = biological target: V3 loop peptide of HIV-1 isolate Z6 (HIV-1 isolate Z6); experiment: peptide ELISA
[10] = biological target: V3 loop peptide of HIV-1 isolate Z2 (HIV-1 isolate Z2); experiment: peptide ELISA
[11] = biological target: V3 loop peptide of HIV-1 isolate NY/5 (HIV-1 isolate NY/5); experiment: peptide ELISA
[12] = biological target: V3 loop peptide of HIV-1 isolate IIIB (HIV-1 isolate IIIB); experiment: peptide ELISA
[13] = biological target: T3, IIIB loop peptide Peptide 3; experiment: competition ELISA, 5 µg/ml antibody preincubated with 50 µg/ml peptide, on coated recombinant IIIB gp120
[14] = biological target: T4, IIIB loop peptide Peptide 4; experiment: as above
native HIV-1IIIB gp120 [15] = biological target: T8, native HIV-1IIIB gp120; experiment: immunofluorescence on slides of IIIB-infected H9 cells
native HIV-1MN gp120 [16] = biological target: T7, native HIV-1MN gp120; experiment: ELISA, hybridoma supernatant on membranes of MN-infected and uninfected H9 cells
[17] = biological target: T9, peptide of amino acids 302-316 of HIV-1MN gp120 (HIV-1 strain MN); experiment: peptide ELISA, 9.50 ng NM-01
[18] = biological target: T5, peptide of amino acids 322-336 of …; experiment: peptide ELISA, 9.50 ng NM-01
[19] = biological target: T6, peptide of amino acids 312-326 of …; experiment: peptide ELISA, 9.50 ng NM-01
[20] = biological target: T9, peptide of amino acids 302-316 of …; experiment: peptide ELISA, 4.75 ng NM-01
[21] = biological target: T5, peptide of amino acids 322-336 of …; experiment: peptide ELISA, 4.75 ng NM-01
[22] = biological target: T6, peptide of amino acids 312-326 of …; experiment: peptide ELISA, 4.75 ng NM-01
native HIV-1MN gp120 [23] = biological target: T7, native HIV-1MN gp120
[24] = biological target: T9, peptide of amino acids 302-316 of …; experiment: peptide ELISA, 19.0 ng NM-01
[25] = biological target: T5, peptide of amino acids 322-336 of …; experiment: peptide ELISA, 19.0 ng NM-01
[26] = biological target: T6, peptide of amino acids 312-326 of …; experiment: peptide ELISA, 19.0 ng NM-01
[27] = biological target: T9, peptide of amino acids 302-316 of …; experiment: peptide ELISA
[28] = biological target: T5, peptide of amino acids 322-336 of …; experiment: peptide ELISA
[29] = biological target: V3 loop peptide of HIV-1 isolate RF (HIV-1 isolate RF); experiment: peptide ELISA

Binder	binding result (native HIV-1MN gp120 [1])	binding result [2]	binding result (native HIV-1IIIB gp120 [4])	binding result [5]	binding result [6]	binding result [7]	binding result [8]	binding result [9]	binding result [10]	binding result [11]	binding result [12]	binding result [14]	also measured
B1	no binding	no binding	binds	binds	no binding	no binding	no binding	no binding	no binding	no binding	binds	–	binding result [3]: binds
B2	no binding	no binding	binds	binds	no binding	no binding	no binding	no binding	no binding	no binding	binds	binds	binding result [13]: binds
B3	–	–	–	binds	–	binds	no binding	no binding	no binding	binds	binds	binds	binding result (native HIV-1IIIB gp120 [15]): binds; ELISA ratio, infected against uninfected cell membranes (Run 1) (native HIV-1MN gp120 [16]): 5.76 ratio; optical density at 650 nm [17]: 0.024 OD 650 nm; optical density at 650 nm [18]: 0.028 OD 650 nm; optical density at 650 nm [19]: 0.827 OD 650 nm; optical density at 650 nm [20]: 0.024 OD 650 nm; optical density at 650 nm [21]: 0.03 OD 650 nm; optical density at 650 nm [22]: 0.781 OD 650 nm; RIA ratio cpm inf/cpm uninf (native HIV-1MN gp120 [23]): 9.81 ratio; optical density at 650 nm [24]: 0.024 OD 650 nm; optical density at 650 nm [25]: 0.03 OD 650 nm; optical density at 650 nm [26]: 1.14 OD 650 nm; binding result [27]: no binding (tested: 19.0 ng); binding result [28]: no binding (tested: 19.0 ng); binding result [29]: binds
